Reference: patent US20040037775A1 (published 2004)
One block for each binder: values may come before it. No end group written: not given here. *: point of attachment. MTX = methotrexate, its gamma-carboxylic acid amide-linked to the peptide N-terminus, CN(Cc1cnc2nc(N)nc(N)c2n1)c1ccc(C(=O)N[C@@H](CCC(=O)*)C(=O)O)cc1

Legend:
Assay in all cases: cell-based or functional assay
[1] = biological target: LFA-1 on mouse L1210 T-cells (mouse, UniProt P24063 24-1162; P11835 24-771)
[2] = biological target: LFA-1 receptor on human Molt-3 T-cells (human, UniProt P20701 26-1170; P05107 23-769)
Sequence of LFA-1 receptor on human Molt-3 T-cells (P20701 26-1170, chain 1 of 2): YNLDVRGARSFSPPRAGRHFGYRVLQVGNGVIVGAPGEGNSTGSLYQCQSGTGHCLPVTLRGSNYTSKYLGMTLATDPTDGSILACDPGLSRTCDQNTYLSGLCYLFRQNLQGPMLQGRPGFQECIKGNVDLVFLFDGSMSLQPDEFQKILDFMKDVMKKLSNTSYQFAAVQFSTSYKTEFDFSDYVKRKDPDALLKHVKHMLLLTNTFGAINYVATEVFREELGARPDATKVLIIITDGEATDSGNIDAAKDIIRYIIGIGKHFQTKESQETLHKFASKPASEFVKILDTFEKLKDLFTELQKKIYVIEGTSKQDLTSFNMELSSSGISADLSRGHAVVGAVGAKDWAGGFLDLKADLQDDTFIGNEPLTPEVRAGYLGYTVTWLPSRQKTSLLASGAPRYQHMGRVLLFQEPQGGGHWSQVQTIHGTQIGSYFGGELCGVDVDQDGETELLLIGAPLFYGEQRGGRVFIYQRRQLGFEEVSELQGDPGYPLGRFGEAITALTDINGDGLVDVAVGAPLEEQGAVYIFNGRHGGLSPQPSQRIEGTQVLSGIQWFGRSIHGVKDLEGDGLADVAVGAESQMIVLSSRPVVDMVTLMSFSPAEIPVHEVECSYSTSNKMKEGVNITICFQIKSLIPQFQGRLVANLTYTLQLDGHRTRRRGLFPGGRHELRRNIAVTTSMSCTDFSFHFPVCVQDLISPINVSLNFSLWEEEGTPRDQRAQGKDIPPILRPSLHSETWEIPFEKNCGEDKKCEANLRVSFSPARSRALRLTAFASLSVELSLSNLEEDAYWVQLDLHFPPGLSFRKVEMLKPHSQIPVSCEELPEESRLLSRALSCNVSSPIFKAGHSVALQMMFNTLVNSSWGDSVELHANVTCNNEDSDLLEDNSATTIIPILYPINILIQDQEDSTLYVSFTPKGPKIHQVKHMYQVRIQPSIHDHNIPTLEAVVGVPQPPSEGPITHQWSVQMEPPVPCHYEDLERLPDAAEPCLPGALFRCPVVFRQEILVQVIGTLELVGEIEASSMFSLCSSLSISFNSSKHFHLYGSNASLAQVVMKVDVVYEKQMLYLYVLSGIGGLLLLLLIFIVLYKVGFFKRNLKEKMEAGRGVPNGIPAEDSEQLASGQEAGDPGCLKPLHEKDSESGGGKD
Sequence of LFA-1 receptor on human Molt-3 T-cells (P05107 23-769, chain 2 of 2): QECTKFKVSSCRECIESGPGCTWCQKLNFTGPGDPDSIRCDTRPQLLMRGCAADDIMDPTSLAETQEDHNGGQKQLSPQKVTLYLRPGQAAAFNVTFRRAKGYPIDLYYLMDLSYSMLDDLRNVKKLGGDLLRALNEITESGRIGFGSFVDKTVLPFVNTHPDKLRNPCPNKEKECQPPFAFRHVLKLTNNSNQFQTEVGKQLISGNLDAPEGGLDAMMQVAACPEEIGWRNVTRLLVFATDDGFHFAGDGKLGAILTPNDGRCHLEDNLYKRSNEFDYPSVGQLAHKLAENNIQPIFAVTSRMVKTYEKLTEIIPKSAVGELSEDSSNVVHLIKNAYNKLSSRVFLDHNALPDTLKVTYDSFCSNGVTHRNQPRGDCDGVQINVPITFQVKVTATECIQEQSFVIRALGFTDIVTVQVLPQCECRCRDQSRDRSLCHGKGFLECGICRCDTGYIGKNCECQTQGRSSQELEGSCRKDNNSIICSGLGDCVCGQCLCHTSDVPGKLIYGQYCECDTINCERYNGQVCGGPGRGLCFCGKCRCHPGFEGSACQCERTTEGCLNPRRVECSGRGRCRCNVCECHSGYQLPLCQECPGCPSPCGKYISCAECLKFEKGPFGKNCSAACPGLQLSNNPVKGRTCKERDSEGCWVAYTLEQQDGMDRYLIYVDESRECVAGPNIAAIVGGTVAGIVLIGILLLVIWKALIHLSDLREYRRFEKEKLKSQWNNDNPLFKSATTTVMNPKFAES

[3] = biological target: dihydrofolate reductase enzyme (DHFR)

Sequence of LFA-1 on mouse L1210 T-cells (P24063 24-1162, chain 1 of 2): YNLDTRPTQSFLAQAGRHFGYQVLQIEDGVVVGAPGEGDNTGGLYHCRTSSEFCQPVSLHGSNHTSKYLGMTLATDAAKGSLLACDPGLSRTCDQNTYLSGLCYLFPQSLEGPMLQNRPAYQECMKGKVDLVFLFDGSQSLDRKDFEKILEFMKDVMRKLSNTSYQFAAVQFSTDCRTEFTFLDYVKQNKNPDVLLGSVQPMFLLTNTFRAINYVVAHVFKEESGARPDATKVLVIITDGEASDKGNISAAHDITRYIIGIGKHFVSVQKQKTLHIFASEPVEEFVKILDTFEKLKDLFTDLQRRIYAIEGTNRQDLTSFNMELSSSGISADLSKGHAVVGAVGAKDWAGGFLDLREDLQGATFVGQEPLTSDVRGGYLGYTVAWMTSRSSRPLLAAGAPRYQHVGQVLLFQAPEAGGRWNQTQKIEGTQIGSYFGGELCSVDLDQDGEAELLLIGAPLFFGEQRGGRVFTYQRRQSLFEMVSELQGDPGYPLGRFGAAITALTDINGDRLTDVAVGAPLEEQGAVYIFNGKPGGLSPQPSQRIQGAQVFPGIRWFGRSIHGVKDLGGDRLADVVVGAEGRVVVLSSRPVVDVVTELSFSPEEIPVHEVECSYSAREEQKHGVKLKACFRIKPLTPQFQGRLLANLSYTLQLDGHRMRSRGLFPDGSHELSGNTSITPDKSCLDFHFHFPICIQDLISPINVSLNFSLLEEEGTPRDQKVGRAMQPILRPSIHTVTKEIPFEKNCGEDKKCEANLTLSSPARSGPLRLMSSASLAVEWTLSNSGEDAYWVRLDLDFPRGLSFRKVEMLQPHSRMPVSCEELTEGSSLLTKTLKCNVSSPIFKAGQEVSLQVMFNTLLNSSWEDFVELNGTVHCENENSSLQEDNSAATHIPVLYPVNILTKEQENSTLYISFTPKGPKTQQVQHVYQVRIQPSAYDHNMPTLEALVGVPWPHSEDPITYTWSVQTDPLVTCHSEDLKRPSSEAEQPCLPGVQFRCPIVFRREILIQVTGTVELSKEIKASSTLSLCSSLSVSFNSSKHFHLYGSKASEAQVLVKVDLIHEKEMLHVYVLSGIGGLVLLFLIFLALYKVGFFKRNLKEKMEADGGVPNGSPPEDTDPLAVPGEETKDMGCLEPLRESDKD
Sequence of LFA-1 on mouse L1210 T-cells (P11835 24-771, chain 2 of 2): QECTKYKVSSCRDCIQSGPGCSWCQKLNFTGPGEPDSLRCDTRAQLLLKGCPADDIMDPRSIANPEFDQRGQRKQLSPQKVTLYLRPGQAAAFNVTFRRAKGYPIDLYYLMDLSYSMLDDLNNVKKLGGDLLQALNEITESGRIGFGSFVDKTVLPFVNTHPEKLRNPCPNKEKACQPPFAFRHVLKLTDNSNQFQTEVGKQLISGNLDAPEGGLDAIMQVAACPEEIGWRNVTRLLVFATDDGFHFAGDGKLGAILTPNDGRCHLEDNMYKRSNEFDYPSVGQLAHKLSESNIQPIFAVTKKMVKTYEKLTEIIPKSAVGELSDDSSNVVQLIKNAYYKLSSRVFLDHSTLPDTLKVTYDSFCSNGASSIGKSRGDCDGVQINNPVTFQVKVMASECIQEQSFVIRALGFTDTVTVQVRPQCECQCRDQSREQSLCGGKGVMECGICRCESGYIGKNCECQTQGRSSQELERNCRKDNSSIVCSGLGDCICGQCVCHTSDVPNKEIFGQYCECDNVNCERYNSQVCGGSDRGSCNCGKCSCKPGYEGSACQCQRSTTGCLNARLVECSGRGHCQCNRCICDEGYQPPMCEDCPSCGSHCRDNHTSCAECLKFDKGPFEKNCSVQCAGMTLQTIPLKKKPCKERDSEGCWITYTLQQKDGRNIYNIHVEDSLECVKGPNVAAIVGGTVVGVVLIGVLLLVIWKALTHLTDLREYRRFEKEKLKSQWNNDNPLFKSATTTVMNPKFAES

B3: MTX-cIBR conjugate (methotrexate-cyclo-Leu Pro Arg Gly Gly Ser Val Leu Val Thr) (peptide)
peptide: {MTX}-LPRGGSVLVT
modifications: also: cyclic peptide, ring closure not given here
Km relative to MTX (Dixon plot, DHFR inhibition assay) [3]: ~15 fold
IC50 in micromolar, growth inhibition, L1210 mouse leukemia cells [1]: 5.5 µM
IC50 in micromolar, cytotoxicity, Molt-3 T-cells [2]: 2.75 µM

B4: MTX-VILPRG (peptide)
peptide: {MTX}-VILPRG-NH2
IC50 in micromolar, growth inhibition, L1210 mouse leukemia cells [1]: 0.7 µM
IC50 in micromolar, cytotoxicity, Molt-3 T-cells [2]: 9.12 µM

More lines, main results first:

IC50 in micromolar, growth inhibition, L1210 mouse leukemia cells [1]: 1.6 µM
B1: MTX-PRGGSV (peptide)
peptide: {MTX}-PRGGSV-NH2
IC50 in micromolar, cytotoxicity, Molt-3 T-cells [2]: 5.13 µM

Km relative to MTX (Dixon plot, DHFR inhibition assay) [3]: ~4 fold
IC50 in micromolar, growth inhibition, L1210 mouse leukemia cells [1]: 9.14 µM
B2: MTX-cIBL conjugate (peptide)
peptide: {MTX}-QTSVSPSKVI
modifications: also: cyclic peptide, ring not given here
IC50 in micromolar, cytotoxicity, Molt-3 T-cells [2]: 2.68 µM
